This passage reports Kd and IC50 results from the Immune Epitope Database (IEDB).

The target in assay [1] is HLA-B*07:02. The assay is described as follows: IEDB peptide-MHC binding, purified MHC/competitive/radioactivity; filed as Kd, often an IC50 or EC50 that approximates it; ≥ and ≤ were set here for values at or beyond the usual limits of such assays.
Assay [2] has as its target HLA-B*54:01. Described as above.
The target of assay [3] is HLA-B*35:01. Described as above.
Assay [4] addresses HLA-B*53:01. In words: IEDB peptide-MHC binding, purified MHC/competitive/radioactivity; ≥ and ≤ were set here for values at or beyond the usual limits of such assays.
Assay [5] has as its target HLA-B*51:01. The assay is described as above.
Assay [6] has as its target HLA-B*53:01. In words: IEDB peptide-MHC binding, purified MHC/competitive/radioactivity; filed as Kd, often an IC50 or EC50 that approximates it; ≥ and ≤ were set here for values at or beyond the usual limits of such assays.
The target of assay [7] is HLA-B*51:01. The description is as above.
The target of assay [8] is HLA-B*07:02. In words: IEDB peptide-MHC binding, purified MHC/competitive/radioactivity; ≥ and ≤ were set here for values at or beyond the usual limits of such assays.
Assay [9] addresses HLA-B*54:01. The description is as above.
The target in assay [10] is HLA-B*35:01. The description is as above.
Setting [11] is: source organism: human papillomavirus 11.
The mark [12] stands for this setting: source organism: Human immunodeficiency virus 1.
The mark [13] stands for this setting: source organism: Candida albicans.
[14] abbreviates: source organism: Human immunodeficiency virus type 1 (RF/HAT ISOLATE).
[15] abbreviates: source organism: Hepatitis C virus (isolate Taiwan).
The mark [16] stands for this setting: source organism: human papillomavirus 18.

As for FPPEGVSIW, the Kd is at least 25 µM with HLA-B*07:02 [1] (source organism: Homo sapiens), 3.85 µM with HLA-B*54:01 [2] (source organism: Homo sapiens) and 4.24 µM in the assay with HLA-B*35:01 [3] (source organism: Homo sapiens). For the same sequence, the IC50 with HLA-B*53:01 [4] (source organism: Homo sapiens) was found to be 0.016 µM; with HLA-B*51:01 [5] (source organism: Homo sapiens), 0.021 µM.
Consider SPISNVANA, for which the Kd was at least 25 µM in the assay with HLA-B*53:01 [6] (setting [11]), 5.5 µM in the assay with HLA-B*51:01 [7] (setting [11]) and at least 25 µM in the assay with HLA-B*35:01 [3] (setting [11]). The IC50 with HLA-B*07:02 [8] (setting [11]) was found to be 0.655 µM; in the assay with HLA-B*54:01 [9] (setting [11]) it was 0.056 µM.
Take FPVRPQVPI: the IC50 worked out at 0.0302 µM with HLA-B*53:01 [4] (setting [12]); 0.0224 µM in the assay with HLA-B*07:02 [8] (setting [12]); 0.0148 µM with HLA-B*51:01 [5] (setting [12]); 0.0016 µM with HLA-B*54:01 [9] (setting [12]); 0.118 µM with HLA-B*35:01 [10] (setting [12]).
As to MPREDAHFI, the IC50 with HLA-B*53:01 [4] (source organism: Homo sapiens) was found to be 0.0066 µM; with HLA-B*51:01 [5] (source organism: Homo sapiens), 0.00046 µM; with HLA-B*54:01 [9] (source organism: Homo sapiens), 0.294 µM; with HLA-B*35:01 [10] (source organism: Homo sapiens), 0.45 µM.
As to FPASFFIKL, the IC50 in the assay with HLA-B*53:01 [4] (setting [13]) amounted to 0.0067 µM; with HLA-B*07:02 [8] (setting [13]) it was 0.014 µM; with HLA-B*51:01 [5] (setting [13]) it was 0.0087 µM; with HLA-B*54:01 [9] (setting [13]) it was 0.015 µM; with HLA-B*35:01 [10] (setting [13]), 0.015 µM.
Regarding LPQPPICTI, the IC50 in the assay with HLA-B*07:02 [8] (source organism: Homo sapiens) amounted to 0.24 µM; with HLA-B*51:01 [5] (source organism: Homo sapiens) it was 0.0043 µM; with HLA-B*54:01 [9] (source organism: Homo sapiens), 0.02 µM.
Take LPTNASLSF: the Kd with HLA-B*54:01 [2] (source organism: Homo sapiens) is at least 25 µM. Besides, the figures for the IC50 with HLA-B*53:01 [4] (source organism: Homo sapiens), in the assay with HLA-B*51:01 [5] (source organism: Homo sapiens) and with HLA-B*35:01 [10] (source organism: Homo sapiens) were 0.034 µM, 0.809 µM and 0.115 µM, respectively.
Regarding FPRFKFVWV, the Kd with HLA-B*53:01 [6] (setting [13]) was 3.51 µM; with HLA-B*35:01 [3] (setting [13]), at least 25 µM. Further, the values for the IC50 with HLA-B*07:02 [8] (setting [13]), with HLA-B*51:01 [5] (setting [13]) and with HLA-B*54:01 [9] (setting [13]) were 0.051 µM, 0.136 µM and 0.017 µM, respectively.
As for FPISPIETV, the Kd was determined as 3.48 µM in the assay with HLA-B*07:02 [1] (setting [14]) and 1.05 µM in the assay with HLA-B*35:01 [3] (setting [14]). The half-inhibitory concentration (IC50) in the assay with HLA-B*53:01 [4] (setting [14]) amounted to 0.251 µM; in the assay with HLA-B*51:01 [5] (setting [14]), 0.147 µM; with HLA-B*54:01 [9] (setting [14]), 0.0098 µM.
Regarding TPAEVSIVV, the Kd with HLA-B*53:01 [6] (source organism: Homo sapiens) worked out at 15.5 µM; with HLA-B*07:02 [1] (source organism: Homo sapiens), 1.53 µM; with HLA-B*35:01 [3] (source organism: Homo sapiens), 2.12 µM. In addition, the IC50 was 0.039 µM with HLA-B*51:01 [5] (source organism: Homo sapiens) and 0.333 µM with HLA-B*54:01 [9] (source organism: Homo sapiens).
For the sequence FPVRPQVPC, the Kd in the assay with HLA-B*53:01 [6] (setting [12]), with HLA-B*51:01 [7] (setting [12]) and in the assay with HLA-B*35:01 [3] (setting [12]) was 1.3 µM throughout. The IC50 with HLA-B*07:02 [8] (setting [12]) was 0.38 µM; with HLA-B*54:01 [9] (setting [12]), 0.0658 µM.
Turning to YPCTVNFTI, the Kd with HLA-B*07:02 [1] (setting [15]) came out at 10.8 µM. Further, the IC50 with HLA-B*53:01 [4] (setting [15]) stood at 0.102 µM; with HLA-B*51:01 [5] (setting [15]), 0.012 µM.
As to QPKKVKRRL, the Kd with HLA-B*53:01 [6] (setting [11]) is at least 25 µM; with HLA-B*07:02 [1] (setting [11]) it was 2.9 µM; in the assay with HLA-B*51:01 [7] (setting [11]) it was 3.23 µM; in the assay with HLA-B*54:01 [2] (setting [11]), at least 25 µM; with HLA-B*35:01 [3] (setting [11]), at least 25 µM.
For the sequence QPFILYAHI, the Kd with HLA-B*53:01 [6] (setting [16]) is 5.47 µM; in the assay with HLA-B*07:02 [1] (setting [16]), at least 25 µM; with HLA-B*54:01 [2] (setting [16]), 2.94 µM; in the assay with HLA-B*35:01 [3] (setting [16]) it was at least 25 µM. Besides, the IC50 with HLA-B*51:01 [5] (setting [16]) was 0.026 µM.
In the case of SPLGERLEV, the Kd was at least 25 µM with HLA-B*53:01 [6] (setting [16]), at least 25 µM with HLA-B*51:01 [7] (setting [16]), 9.09 µM with HLA-B*54:01 [2] (setting [16]) and at least 25 µM with HLA-B*35:01 [3] (setting [16]). Moreover, the IC50 with HLA-B*07:02 [8] (setting [16]) was 0.042 µM.
Turning to LPFRNCPRF, the Kd with HLA-B*07:02 [1] (source organism: Homo sapiens) was found to be 1.12 µM. Further, the IC50 in the assay with HLA-B*53:01 [4] (source organism: Homo sapiens) is 0.62 µM; with HLA-B*51:01 [5] (source organism: Homo sapiens), 0.014 µM; with HLA-B*54:01 [9] (source organism: Homo sapiens), 0.27 µM; with HLA-B*35:01 [10] (source organism: Homo sapiens), 0.4 µM.
As for LPSPACQLV, the Kd with HLA-B*53:01 [6] (source organism: Homo sapiens) is 7.15 µM; in the assay with HLA-B*07:02 [1] (source organism: Homo sapiens) it was 7.86 µM; with HLA-B*35:01 [3] (source organism: Homo sapiens) it was at least 25 µM. Also, the IC50 in the assay with HLA-B*51:01 [5] (source organism: Homo sapiens) was 0.0082 µM; with HLA-B*54:01 [9] (source organism: Homo sapiens), 0.217 µM.
On to FPVRPQVPT, for which the Kd with HLA-B*53:01 [6] (setting [12]) and with HLA-B*51:01 [7] (setting [12]) was 1.3 µM each time. In addition, the values for the IC50 with HLA-B*07:02 [8] (setting [12]), with HLA-B*54:01 [9] (setting [12]) and in the assay with HLA-B*35:01 [10] (setting [12]) were 0.38 µM, 0.0018 µM and 0.026 µM, respectively.
